One may read the Kd as the equilibrium constant for the complex coming apart.

What all share (experiment): SPR (BIAlite), receptor amine-coupled on CM4 chip, ligand injected, 25 C
Assay [1] has as its target T1, TrkA (UniProt P04629 34-413, limits assumed).
T1 construct: also called NTRK1; TrkA receptor
The method, then:
(§1) The TrkA, TrkB and TrkC receptors and p75^NTR were immobilized on a sensor chip, CM4, using an amine-coupling kit as follows: the chip was activated by 20 μl activation solution, N-hydroxysuccinimide, (NHS) and N-ethyl-N′-(3-[…])-carbodiimide (EDC), the protein was immobilized using 30 μl of a mixture of 4 μl (0.5 μg/ml) protein in 50 μl 10 mM sodium acetate buffer (pH 4.0); and the chip was blocked by 35 μl blocking solution (ethanolamine-HCl). The receptor surface was regenerated between ligand injections with 15 μl 2 mM NaCl or 10 mM glycine-HCl, pH 2.5. In the present experiments a flow rate of 5 μl/min was used.
(§2) The curve corresponding to the difference between binding to the Trk receptors or the […] receptor and a blank chip was used for analysis.

Assay [2] has as its target T2, TrkB (UniProt Q16620 32-430, limits assumed).
T2 construct: also called NTRK2; TrkB receptor
The method, then: as §1, §2

In assay [3] the target is T3, TrkC (UniProt Q16288 32-429, limits assumed).
T3 construct: also called NTRK3; TrkC receptor
The method, then: as §1, §2

The target of assay [4] is T4, P75 receptor (UniProt P08138 29-250, limits assumed).
T4 construct: also called p75NTR; p75(NTR)
T4 sequence (looked up): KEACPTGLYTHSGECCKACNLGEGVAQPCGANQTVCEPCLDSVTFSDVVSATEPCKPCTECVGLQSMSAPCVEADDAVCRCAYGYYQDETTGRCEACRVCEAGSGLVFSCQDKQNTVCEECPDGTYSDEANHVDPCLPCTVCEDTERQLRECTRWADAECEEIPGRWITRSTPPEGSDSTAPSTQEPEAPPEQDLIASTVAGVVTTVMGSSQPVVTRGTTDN
The method, then: as §1, §2

T2 sequence (Q16620 32-430 limits assumed): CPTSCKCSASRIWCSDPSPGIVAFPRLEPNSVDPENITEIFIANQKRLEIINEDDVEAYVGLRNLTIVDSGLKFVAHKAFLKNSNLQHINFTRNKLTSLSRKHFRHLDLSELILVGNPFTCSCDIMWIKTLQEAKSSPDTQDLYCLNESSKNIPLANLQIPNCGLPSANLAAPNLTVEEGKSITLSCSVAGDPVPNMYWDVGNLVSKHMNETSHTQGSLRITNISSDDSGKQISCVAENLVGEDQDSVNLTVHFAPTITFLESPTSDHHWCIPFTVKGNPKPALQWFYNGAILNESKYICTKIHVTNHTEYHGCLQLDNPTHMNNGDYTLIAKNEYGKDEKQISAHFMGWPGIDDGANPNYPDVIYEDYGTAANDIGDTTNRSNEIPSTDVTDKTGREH
T1 sequence (P04629 34-413 limits assumed): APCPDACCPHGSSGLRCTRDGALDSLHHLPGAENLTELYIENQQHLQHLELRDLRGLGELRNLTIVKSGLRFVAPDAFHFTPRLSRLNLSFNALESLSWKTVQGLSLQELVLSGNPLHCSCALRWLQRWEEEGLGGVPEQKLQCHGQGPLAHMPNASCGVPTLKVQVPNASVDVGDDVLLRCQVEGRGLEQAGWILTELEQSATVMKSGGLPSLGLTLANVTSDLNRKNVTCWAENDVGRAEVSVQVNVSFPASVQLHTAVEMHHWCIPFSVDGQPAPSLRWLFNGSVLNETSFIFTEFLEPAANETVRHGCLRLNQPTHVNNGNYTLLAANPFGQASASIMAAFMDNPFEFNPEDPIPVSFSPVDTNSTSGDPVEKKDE

Take CVLSRKAVRRA [NGF-C2]: the Kd in assay [1] is 727 nM; in assay [2], 883 nM; in assay [3], 658 nM; in assay [4] it was 385 nM.

B1: BDNF-EE (peptide)
peptide: SYVRALTMDSKKRIGWR
notes: also called BDNF derived peptide BDNF-EE
For the molecule B1, the values for the Kd in assay [2], in assay [3] and in assay [4] were 38.7 nM, 166 nM and 110 nM, respectively.

Take TFVKALTMDGKQAAWR (also called NGF derived peptide NGF-EE) [NGF-EE]: the Kd amounted to 10.3 nM in assay [2], 51.9 nM in assay [3] and 226 nM in assay [4].

For the molecule RGIDKRHWNSQ (also called BDNF derived peptide BDNF-E) [BDNF-E], the dissociation constant (Kd) amounted to 173 nM in assay [2], 697 nM in assay [3] and 556 nM in assay [4].

Consider RGIDSKHWNSY (also called NGF derived peptide NGF-E) [NGF-E], for which the values for the dissociation constant (Kd) in assay [2], in assay [3] and in assay [4] were 254 nM, 1060 nM and 2600 nM, respectively.

B2: BDNF (ligand, UniProt P23560 129-247, looked up)
chain: HSDPARRGELSVCDSISEWVTAADKKTAVDMSGGTVTVLEKVPVSKGQLKQYFYETKCNPMGYTKEGCRGIDKRHWNSQCRTTQSYVRALTMDSKKRIGWRFIRIDTSCVCTLTIKRGR
notes: also called brain-derived neurotrophic factor
As for B2, the dissociation constant (Kd) in assay [2] turned out to be 1.18 nM; in assay [4], 0.0584 nM.
